# Assay results from patent US20250270319A1 (Alector, published 2025).
# Numbering of substitutions follows the chain as printed.
# B1: anti-CD33 antibody 6C7H1 (antibody, V domains shown)
# VH: EVQLVESGGGLVQPGGSLRLSCAASGFTFSNYCMNWVRQAPGKGLEWVGEIRLKSNNYVTNYAASVKGRFTISRDDSKNSLYLQMNSLKTEDTAVYYCARDGYYVPFAYWGQGTLVTVSS
# VL: QLVLTQSPSASASLGASVKLTCTLSSQHSTYTIEWHQQQPEKGPRYLMKLKKDGSHSTGDGIPDRFSGSSSGAERYLTISSLQSEDEADYYCGVGDTIKEQFVYVFGGGTKLTVL
# notes: Humanized 6C7; VH/VL only
# B2: anti-CD33 antibody 6C7H2 (antibody, V domains shown)
# VH: B1 VH with A24G, G49A, L81V, A94G, A99T
# VL: B1 VL
# notes: Humanized 6C7; VH/VL only
# B3: anti-CD33 antibody 6C7H3 (antibody, V domains shown)
# VH: B1 VH
# VL: B1 VL with H36Y, K49E
# notes: Humanized 6C7; VH/VL only
# B4: anti-CD33 antibody 6C7H4 (antibody, V domains shown)
# VH: B1 VH with A24G, G49A, A99T
# VL: B1 VL with H36Y, K49E
# notes: Humanized 6C7; VH/VL only
# B5: anti-CD33 antibody 6C7H6 (antibody, V domains shown)
# VH: B1 VH
# VL: B1 VL with V18A, H36Y, L47V, K49E, L82I, Y91I, L112V
# notes: Humanized 6C7; VH/VL only
# B6: anti-CD33 antibody 6C7H7 (antibody, V domains shown)
# VH: B1 VH with A24G, G49A, A99T
# VL: B1 VL with V18A, H36Y, L47V, K49E, L82I, Y91I, L112V
# notes: Humanized 6C7; VH/VL only
# B7: anti-CD33 antibody 6C7H10 (antibody, IgG1, V domains shown)
# VH: B1 VH with N31E, C33A, L81V, A94G, A99T, D101A
# VL: B1 VL with H36Y, K49E, D53E
# notes: VH/VL only; also called 6C7H10 IgG1
# B8: anti-CD33 antibody 6C7H19 (antibody, V domains shown)
# VH: B1 VH with A24G, C33R, G49A, L81V, A94G, A99T, D101A
# VL: B1 VL with H36Y, K49E, D53E
# notes: VH/VL only
# B9: anti-CD33 antibody 6C7H30 (antibody, V domains shown)
# VH: B1 VH with A24G, C33W, G49A, L81V, A94G, A99T, D101A
# VL: B1 VL with H36Y, K49E, D53E
# notes: VH/VL only
# B10: 6C7H54 IgG2 (antibody)
# heavy: EVQLVESGGGLVQPGGSLRLSCAGSGFTFSNYEMNWVRQAPGKGLEWVAEIRLKSNNYVTNYAASVKGRFTISRDDSKNSVYLQMNSLKTEDTGVYYCTRAGYYVPFAYWGQGTLVTVSSASTKGPSVFPLAPCSRSTSESTAALGCLVKDYFPEPVTVSWNSGALTSGVHTFPAVLQSSGLYSLSSVVTVPSSNFGTQTYTCNVDHKPSNTKVDKTVERKCCVECPPCPAPPVAGPSVFLFPPKPKDTLMISRTPEVTCVVVDVSHEDPEVQFNWYVDGVEVHNAKTKPREEQFNSTFRVVSVLTVVHQDWLNGKEYKCKVSNKGLPAPIEKTISKTKGQPREPQVYTLPPSREEMTKNQVSLTCLVKGFYPSDIAVEWESNGQPENNYKTTPPMLDSDGSFFLYSKLTVDKSRWQQGNVFSCSVMHEALHNHYTQKSLSLSPGK
# light: QLMLTQSPSASASLGASVKLTCTLSSQHSTYTIEWYQQQPGKGPRYLMELKKEGSHSTGDGIPDRFSGSSSGAERYLTISSLQSEDEADYYCGVGHTIKEQFVYVFGGGTKLTVLGQPKAAPSVTLFPPSSEELQANKATLVCLISDFYPGAVTVAWKADSSPVKAGVETTTPSKQSNNKYAASSYLSLTPEQWKSHRSYSCQVTHEGSTVEKTVAPTECS
# B11: 6C7H54 IgG1 PS (antibody)
# chain 1: not shown
# chain 2: B1 VL with V3M, H36Y, E41G, K49E, D53E, D96H
# Assays:
# [1] = target: T1, human CD33 on primary human dendritic cells (human, UniProt P20138 18-364); experiment: flow cytometry on primary human dendritic cells, antibody dilutions, fluorescent anti-human IgG secondary
# T1 construct: Endogenous CD33 of monocyte-derived dendritic cells from healthy donors; also called Siglec-3
# Experimental: The 7 humanized anti-CD33 antibodies of 6C7 were evaluated for binding to primary dendritic cells by flow cytometry, and binding was compared to that of an anti-CD33 6C7 chimeric antibody that contained the variable heavy chain sequence and the variable light chain sequence of anti-CD33 antibody 6C7. Monocytes were isolated from blood from healthy human donors using the RosetteSep™ monocyte isolation antibody cocktail (StemCell Technologies). The isolated monocytes were differentiated into dendritic cells with 100 ng/mL GM-CSF and 100 ng/mL IL-4 (Peprotech). Dendritic cells were incubated with dilutions of the anti-CD33 antibodies for 30 minutes on ice in the dark, followed by a 30-minute incubation with a fluorescently-conjugated anti-human IgG secondary antibody. Cells were washed twice in FACS buffer (PBS+2% FBS, 2 mM EDTA), and flow cytometry was performed on a BD FACS Canto. Data were analyzed using FlowJo software (Ashland, OR).
# [2] = target: T2, recombinant human CD33 protein (Sino Biologicals) (human, UniProt P20138 18-259); experiment: BLI (ForteBio), antibody on anti-human Fc sensor, CD33 10 nM
# T2 construct: Bought protein; also called recombinant CD33
# Experimental: Affinity parameters of the antibody variants for human CD33 were measured by BioLayer Interferometry in a ForteBio assay according to standard techniques (Estep et al. (2013) MAbs 5(2): 270-8) and were compared to those of the parental antibody (antibody 6C7H8) and the parental humanized antibody (antibody 6C71H5). Briefly, the antibodies were captured on anti-human Fc Biosensors (Pall ForteBio). Recombinant human CD33 (10 nM, Sino Biologicals) was then bound to the captured anti-CD33 surface (200 s association time, 1200 s dissociation time). Local fitting was used to extract association and dissociation rate constants (kₐ and kd, respectively) for each antibody. Apparent affinity constants (KD) were calculated from the ratio kd/kₐ.
# [3] = target: T1, human CD33 on primary human dendritic …; experiment: cell-based or functional assay
# [4] = target: T1, human CD33 on primary human dendritic …; experiment: cell-based or functional assay; remark: listed apart in the source
# [5] = target: T1, human CD33 on primary human dendritic …; experiment: flow cytometry, primary human dendritic cells, 2 ug/mL
# T1 sequence (P20138 18-364): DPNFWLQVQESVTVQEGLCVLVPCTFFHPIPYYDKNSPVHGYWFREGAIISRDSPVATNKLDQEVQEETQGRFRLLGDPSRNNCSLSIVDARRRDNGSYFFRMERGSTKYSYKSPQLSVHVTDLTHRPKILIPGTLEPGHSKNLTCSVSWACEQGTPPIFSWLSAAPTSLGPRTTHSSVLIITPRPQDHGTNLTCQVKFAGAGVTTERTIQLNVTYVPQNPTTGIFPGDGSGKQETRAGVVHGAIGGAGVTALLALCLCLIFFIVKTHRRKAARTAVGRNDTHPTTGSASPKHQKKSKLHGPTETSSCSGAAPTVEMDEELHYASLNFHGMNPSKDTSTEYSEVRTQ
# T2 sequence (P20138 18-259 limits assumed): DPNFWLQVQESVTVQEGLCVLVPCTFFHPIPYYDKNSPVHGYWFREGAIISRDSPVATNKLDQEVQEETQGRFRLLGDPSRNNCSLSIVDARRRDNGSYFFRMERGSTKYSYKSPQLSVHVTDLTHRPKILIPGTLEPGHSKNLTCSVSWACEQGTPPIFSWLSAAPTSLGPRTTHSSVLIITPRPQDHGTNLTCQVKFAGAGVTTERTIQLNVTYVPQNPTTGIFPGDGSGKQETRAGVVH
binder,measurement,setting,value
B1,binding result,[1],no binding (tested: about 1.2 ug/mL)
B2,binding result,[1],no binding (tested: about 2 ug/mL)
B3,binding result,[1],binds
B4,binding result,[1],binds
B5,binding result,[1],binds
B6,binding result,[1],binds
B7,Kd,[2],0.561 nM
same,koff,[2],0.000823 s⁻¹
same,kon,[2],1.47e+06 M⁻¹ s⁻¹
same,Maximal downregulation (% CD33 remaining),[3],21.2 % CD33 remaining
same,"Receptor downregulation, (pM, EC50)",[3],778 pM
same,Fold increase in potency compared to 6C7H5,[4],0.1 fold
same,Maximal reduction in CD33 (% remaining),[4],21.2 % remaining
same,"Receptor downregulation, (EC50) (pM)",[4],778 pM
B8,Kd,[2],0.238 nM
same,koff,[2],0.00114 s⁻¹
same,kon,[2],4.79e+06 M⁻¹ s⁻¹
same,binding relative to the parental antibodies,[5],< 60%
B9,Kd,[2],1.27 nM
same,koff,[2],0.0059 s⁻¹
same,kon,[2],4.65e+06 M⁻¹ s⁻¹
same,binding relative to the parental antibodies,[5],< 60%
B10,Fold change in potency from IgG1,[3],1.2 fold
same,Maximal downregulation (% CD33 remaining),[3],14.3 % CD33 remaining
same,"Receptor downregulation, (pM, EC50)",[3],25.3 pM
B11,Fold change in potency from IgG1,[3],2.4 fold
same,Maximal downregulation (% CD33 remaining),[3],23.9 % CD33 remaining
same,"Receptor downregulation, (pM, EC50)",[3],12.6 pM
